The target of assay [1] is SK.Plg* activator complex of SKC2 (α_(STAB)-βG88-γ_(STAB)) (group A streptococcus (GAS), STAB902 | group G streptococcus (GGS), G88 | not stated).
The target of assay [2] is SK.Plg* activator complex of SKC1 (αG88-β_(STAB)-γG88) (group G streptococcus (GGS), G88 | group A streptococcus (GAS), STAB902 | not stated).

With plasminogen (natural protein), the K m (µM), proteolytic constants: Plg activation by the SK.Plg* complex against substrate Plg 0.3 to 5.0 µM, S2251 hydrolysis at 405 nm, 37 °C in assay [1] turned out to be 3.73 µM; in assay [2], 1.09 µM.

For the origin of these results see PMC6900475.
